Measured values taken from the DeepSol protein solubility set.

Test: soluble on expression in E. coli; label from the status in PepcDB or PDB records

Row | Sequence | soluble on expression in E. coli
1 | MDHTVLIALLLAFCSTASAVDSEGTDFVFAFVRNANPNITNQILSATVLNQNAQDCKFTLTYRPDYRKATSPENITVTVSANSAVEVPVLSWYGWNYANENLQDDVFLTLTGFSTCPVTVLANNYDNVTGQGDTYMVLPLTWGSTSLTFSLPPAVLSTDQQYEQIYVLPTTPGVTKVSVFEIGNAASVYTFNATFGNAPAAYIGARTPDARPRTYHVMSDKNVLVVAGVTCAGADANSCDHVAYMPHPPPSSDCYTYDYYDDDHVSYLPTTSQFFTDIPGTCSVGQNITRTLNDGVSYTITIKPQMESPLWSIKTTNANQLAVAFHNGGSNIHIARYYDGTKFNSRGAFAATSPSMTQFHNLNTPFFTRNANDTIEIYCTVLSCSSITIDGVKIQITDTKVVQKVDDISYYIFVNTIANPGYHQISLKQQGSYAFFVYGKNKLYSYGYEGGANKPTVVLAPPTTPGPTFYPVTTVSTMSPPTTVTVPTTPTPVPTTTNTPPANPTTATPTTVGTMTPSTGTTTVPVPTTTGSPTTQTTAPVTKPTVPSSTTQTAPPVTTPTSQPPVTTTSLLTTLTTPTVPVTTTVVPSSATVPTTPPTTVTVAATTTSKAPVVTTSPTLAPTSPTKLPTSPPSTVGTSPTAPANLTTPTTAPVNPTSSTTAPTAPVNPTSPTTAPTVPPVTTTTPTTTTSTTTTTTTTTTTTQTTPTTPVVTTPSTITPTTRPVTQPASQPATQPATTPTTTIPTTTQFSSAVSVALPVVLTMFFALF | not soluble
2 | MSLKVLIIGGVAAGTKTAAKIKREMGDNCSVTILNKGDDISYAGCGLPYYVGKIIEDKSSLIVNTPESFSKLTGAEVRCGVEVTSIDRNAKQVTLKTLSTGEKENLSYDKLVIATGADPIKPPIPGIDLPGVFFMRTPNDAIKLRDSIENGIKRAVVIGGGFIGLEIAENLSAMGIRVSVVDMAEHVMPGFDTDFAEYVENHMADKGIMIFTGDQVVGIEGENKVEKLRTKNRAIKTDLVVMSVGIRPNTGFLKDTGLEFAPNNTIIADEYMLTNDKDIYVVGDCAFVKNSLTNKPTWSPMGSSANHEGRICAQNISGKSKTYNGVLGTTVVKLPELNAGKTGLSKEIAEKEGYNVCSVTIATDDKAHYYPGASNFIIRMVAEKNTRKLLGVQVMGPGAVDKIVDIAATAITLGADLYSLESMDLAYAPPFSTAIHPFVVAVNVLQNKLNGELDSVLLDEIEDFDSWTKLDVSKAPSIPSLRYIPVGEINGEIEGLAKDEKILLICAKGKNSYMAQNRLRRFGYTNTKVLEGGILFYPNLKVMEEGHHHHHH | soluble
3 | MSLRHLLRSLIGKTLAFFVEREDDNLTRVREHLMDLLDARPSPVRAQNLRSARQLLHKQADVFNRAFQAALQTSMDEEMRAVLPEAPASAVANDTSADPLDGMTLSLIDVCEVERILLVDRVAQRFTAHYDASVSALTQRLGVLLGRDVAALSSNPFRPEVFVRAFLLAWENSGLDKQATEDLMLSLDPLHSIDLTPLYADLNAMLTHAGIAAQPARRVIKSEGAGSSYLPLSPASAHAHLQGGEMRSGLGDLEPERARSAWDALAPAGRSIASHARQFLQRLGLASSSGQNDSGAGEGADWTPADGHETRTYLASADPEFMGYLGDLQAGAQAESAERILPGQHPGDRNVLRQMRDRDEVRRAPELDRGTVDALAEVFDFVFADQAIPVQMKFVIGRLQIPVLKAAMIDRDFFLSADHPARRLVDTLAQASIAWAPEKGESDPLYVRIENTVQRVLTEFEDDLALFSELLAEFTEFLFETEQQAQGRIEPAVDHERVGESFEQALAHADEVIHARIAALPSELPLAPFLAPFLTTQWREVLARAWLNVQASAAPWDSAVTSMDQLIWSTQPKTRIEERRQLVALLPELVRRLNAGLDAIEWVGEPRATFTRRLIATHMMAIRMTQAASVDSMSAALEANAGKEAMNELEQRRSGQLAGSVDDFDAMAQSFTRGLWFDFLLDEHTQHRCLLSWVSPMRTRLLFTNRDGFDAFVRSEREVAALLRHGRLHVIDQQPIVSRALDRIMSEGERKQEGHHHHHH | soluble
4 | MSRGTQACINAAHTVSGIIGDLDTTIMFATAGTLHSDGDGSFADHREHILQTAKALVEDTKVLVTGAAGTQDQLANAAQNAVSTITQLAEAVKRGACSLGSTQPDSQVMVINAVKDVASALGDLINCTKLASGKSINDPSMQDLKESARVMVLNVSSLLKTVKAVEDEHTRGTRAMEATVEAISQEIRALEHHHHHHHH | soluble
5 | GPGSMHLDEMLKEIQDMQEKNWTAVERTDIILAKLCAFLDKLAHSLRFMATSQPSCGAGAVCSAGVAVTTHTHGESARGLRISRDIRTAAAGRPFETEVDD | soluble
6 | MTKKSTIQPCLVCGQSSNSILFGAPSCRACGEFFRRKVISNFKIKNNCLGECSFAKKSMKPCQSCRFQKCLEAGMLEKMVFSRKAIYSISNFEKSILEELEEAYSKLEHGRNETFNPKSDSNPKFCSHEELNNTCTIDIQIILDNLISYFQAKKPMGKEQDDVLKMHFIVPFVLFDTAFRAIGKSSYISPDGTMFGGSYVEKLYQDSSNSKIGVNNGKTSREIMESYWKVSYKILKSEMELLQLDRSEFLLLSALIYWDFGLENQSDKCCENCNTIREKVLKELVKYERKKSGQNALRIAMIMGLLQAVPKALDVMKTCGFLSKIYNLRGSGCPLYAISTNSPPQ | not soluble
7 | MDFAFEKVARDWFVRWSKGRSEKYAGQVMRNFERWVFPAIGNLDIRQVRTADVVGCLRVMEARGIVDTLRKTKNSLKMVFAFAVGSGMMEINPVAQIGSGVFERLEHHHHHH | not soluble
8 | PRHRLLVVGAGQLSRYLCEMAIALDFDVTVSDPRQEYRAGWQVEGVALTTAMPDDMVIAARPDARTAVIALTHDPKLDDLALIDALQTPAFYVGALGSRANHARRVARLREHFGLTPAQLARLRGPAGIY | not soluble
9 | MAEEYSWDSYLNDRLLATNQVSGAGLASEEDGVVYACVAQGEESDPNFDKWSLFYKEDYDIEVEDENGTKTTKTINEGQTILVVFNEGYAPDGVWLGGTKYQFINIERDLEFEGYNFDVATCAKLKGGLHLVKVPGGNILVVLYDEEKEQDRGNSKIAALTFAKELAESSQLQHHHHHH | soluble
10 | MGHHHHHHSHEVFKNAQPPIRDATDLRENMQNAVVSFKELCGLSSVANLMQCMLAVSPRFLGPDNTPLVVLNLSEQYPTMELQGIVPEVLKKIVTTYDMMIQSLKALIENADAVYEKIVHCQKAAMEFHEHLHSIGTKEGLKERKLQKAVESFTWNITILKGQADLLKYAKNETLENLKQIHFAAVSCGLNKPGTENADVQKPRRSLEVIPEKANDETGE | not soluble
11 | MGSDKIHHHHHHMAYIKRTIETTIENAAKMFSTVLITGARQVGKTTVLKHITEDISYLTLDDPILLLNAFEEAGSFFKSTPPPVIIDEIQYAPNLFPYIKMIADENGKRGQFYLTGSQQFKMMKNVSESLAGRIGIINLLGLSLREIKGDADFNKAFIPTESYLETRRLSAKELNYKEIWKIIYKGSMPAMYADELDWQLFYGSYTKTYLERDVRELTQVGDELKFIKFMTAMASRTSQMLNLTSIANEVGISVPTADRWLSILVSSNIVYLLKPYYNNIMKRAVKTPKLYFLDTGLAAYLTKWNSPDVIEAGAMSGAFFETFVLAEILKGYYNAGILEPALYYYRDKDAKEIDIILEENGTLYPIEIKKTANPSKEHIANFSVLDRLKDMKIGTGCVICMYDKVIHINDNNVSIPVTWL | not soluble
12 | MDDHNALLAERHTIFQSSLMTALLDGIYDGEISIGELLGHGNFGIGTFDALDGEMVILDGVCYQLRGDGSASEAALTQRSPFAIATNFVPRLKARVPRGMHRSELSDFITSLLPSENYMYAVRISGMFSSVSVRTVTKQERPYRPMTQATGDDAELEFTNVSGVVAGFRTPIYEKGIGVPGCHVHFIDTDRTSGGHVLDFTMSEGTIEVCPGTDLQLRLPLTQDFSKASLAPDDLDAQIHATEVKG | not soluble
13 | VTDMNPDIEKDQTSDEVTVETTSVFRADFLSELDAPAQAGTESAVSGVEGLPPGSALLVVKRGPNAGSRFLLDQAITSAGRHPDSDIFLDDVTVSRRHAEFRLENNEFNVVDVGSLNGTYVNREPVDSAVLANGDEVQIGKFRLVFLTGPKQGEDDGSTGGP | soluble
14 | MEKLTMQEEEVMIYIWELESCYVKDIVAKFEQPTPPYTTVASIVKNLERKKYVKAQRVGNTYLYTPSIKESEYKRSFMSGVVRNYFENSYKEMVSFFAKDQKISTNDLKEIIDMIEKGQEK | not soluble
15 | MGSDKIHHHHHHMSTANIAPAIRIGVLGFGGLGQAAAKVLAGKREMKLVAVADQKGYAYAAAGLNFKDCIATYQSQGSVGYLEPVGSLGNNSIQDLIDSSQPVDGYFLALPNLPNDFIPSVARQFIQSGWRGVLVDAIKRTSAVEQLIAMKDELQAAGITYMTGCGATPGLLTAAAALAAQSYAEIHQVEITFGVGIANWEAYRATVREDIGHMPGYTVEAARAMTDAEVEALLDKTNGVLTLQNMEHADDVMLELAGIVERDRVTVGGVVDTRNPKKPLSTNVKVTGRTFEGKISTHTFTLGDETSMAANVCGPAFGYLKAGMQLHQRGIHGIFTAAEIMPQFVK | not soluble
16 | AGRTGRLHLAIECHSCFQWLMPALDAFRGQWPDVALDLSAAFSFAPLPALVRGDLDLVITSDPQALEAVTYLPLFKYELVLAVAESNPLAANRHVMPEQLADQTLITYPVDRQRLDIFTGF | not soluble
17 | MAHHHHHHMKSFSVTPRVWRRISEKNAEEGYGNDLRYLRLMIESGGCHGYAYKFLFEENSELVADEDVVVAESDVVQLPQPKSQELRTVAEGEGEGDVGESKAKGPPPRLVVDKHSVAKLLSAVVDFHSELKGSAFVVIGNELVDKSCACAMSFSMKKQQQKV | not soluble
18 | MAEYEFMYIHSLAEHYLQYVLQVPAFESAPSQACRVLQRVAFSVQKEVEKNLKSYLDDFHVESIDTARIIFNQVMEKEFEDGIINWGRIVTIFAFGGVLLKKLPQEQIALDVGAYKQVSSFVAEFIINNTGEWIRRNGGWEDGFIKKFEPKSGWLTFLQMTGQIWEMLFLLK | not soluble
19 | MQAAPQGGIYNYFHSLLPPLSLAPFLPRTPLPSTSLFCKGLKKERYKPRFRPRECHCSVENLHLGHEMQNSHRTICKSALQLLPPSWSDPFRRRDADFPPNSPSPARPSSENASNRAKEKVHLSPIIALCISHHTSQEKLFTQHLMNMPTGETHKSPPS | not soluble
20 | MAHHHHHHMGGGGSIPRKKATSARQVSTDRSVRRLQTKRRVGEPRFNGIGYVTIPLCIQEDLPPPPEDDDAPDDSTRKFAWFVEDLDMPGEWELYPPDACERLDEARRSNMTECLVVVKKRMCTVNLVKMEHLCAGSNARPRQVKRVEVEVSNGTTTYQEKRKVPNDPFAEDSPRETPSPMELFESEENAVHDVGSATTTKAEPEKVPNLVRSILTEKTTSYAMSLTSNGTTVFSGTKAQMLRWDLKTAEVTAEFDVQDSVVLSNALSHDERHVVAGRSDCTASMHSVDGSTSCVFSGHQRKVYGVDFLLGDDRVATASMDCTVRIWDASTSTCVQTIGCSAASVFTVVTSDLNNHFALSAGDDNIIYAHDLRSGGDCVIDRFIDHASTVWCCALRNDEQVFASCGIDGVIRVWDIRNSSSPTLLLRHHEKPVHMVKFTPRGRAILSCGRDDNMRLTDAMTGEPLWRAVAHRRFVYRIAFSKEKKFILSSGGDHRVNVWNYDYIDRM | not soluble
21 | MLKADYIPYTLKFKEPAGTSRGVLHTKQTYFVRVYDDTFPSRAGYGEAALFRGLSAEEGADYEERLAEVCNGVCGFTPDAWQAYPSLCFGMETALADFEGGGLLFPSAFTSGEAGIPINGLI | not soluble
22 | RSAFSKIESEEYNSLKSSTIQTIGTSDGGSGIGYIESGDYLVFNKINFGNGANSFKARVASGADTPTNIQLRLGSPTGTLIGTLTVASTGGWNNYEEKSCSITNTTGQHDLYLVFSGPVNIDYFIFDSNGVNP | soluble
